Measured values from US20240010750A1 (Bayer, published 2024).
Positions count from the first letter of the chain named. Where two headings read alike, the source gives them in different places. Blank lines part the entries; values can stand above or below the binder they belong to.

How the values were obtained:
human alpha2-Antiplasmin [1] = molecular target: T1, human alpha2-Antiplasmin (human, UniProt P08697 40-491); assay: cell-based or functional assay
T1 sequence: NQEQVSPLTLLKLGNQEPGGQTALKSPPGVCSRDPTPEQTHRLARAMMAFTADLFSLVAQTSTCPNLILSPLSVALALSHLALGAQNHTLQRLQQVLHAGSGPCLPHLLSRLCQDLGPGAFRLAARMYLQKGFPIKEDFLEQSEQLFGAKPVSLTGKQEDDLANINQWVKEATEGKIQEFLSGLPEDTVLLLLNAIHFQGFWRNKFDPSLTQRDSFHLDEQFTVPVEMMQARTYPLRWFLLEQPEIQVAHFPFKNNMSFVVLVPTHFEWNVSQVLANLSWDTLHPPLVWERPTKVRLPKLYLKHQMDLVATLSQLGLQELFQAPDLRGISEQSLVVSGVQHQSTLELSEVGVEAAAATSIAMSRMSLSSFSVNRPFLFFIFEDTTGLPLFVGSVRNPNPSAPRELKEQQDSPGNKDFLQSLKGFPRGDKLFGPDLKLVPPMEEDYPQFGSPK

human alpha2-Antiplasmin [2] = molecular target: T1, human alpha2-Antiplasmin; assay: cell-based or functional assay; remark: listed apart in the source
human Plasmin = human Plasmin (human, UniProt P00747 97-580; P00747 581-810, limits assumed); assay: cell-based or functional assay
human alpha2-Antiplasmin [3] = molecular target: T1, human alpha2-Antiplasmin; assay: cell-based or functional assay; remark: listed apart in the source
human alpha2-Antiplasmin [4] = molecular target: T1, human alpha2-Antiplasmin; assay: ELISA (Example 3), human alpha2-Antiplasmin coated, RFU
Description: A standard ELISA format was used for analyzing the binding affinity of Fabs of this invention to human and rabbit alpha-2-Antiplasmin, respectively. Antigens were coated to black 384 well Maxisorp microtiter plates (Nunc; catalogue number 460518), diluted to a concentration of 1 μg/ml in 1× Coating Buffer (Candor Bioscience; catalogue number 121125). Plates were incubated overnight at 4° C. After overnight incubation, plates were washed 2× with 50 μl/well using PBS+0.05% Tween 20. Following this, 50 μl/well of blocking buffer (Smart Block; Candor Bioscience; catalogue number 113500) was added and the plates were incubated for 1 hour at room temperature. Afterwards, plates were washed for 3× using […] PBS+0.05% Tween 20 buffer. Fabs of this invention were added at different concentrations in a final volume of 30 μl/well. Plates were incubated for 1 hour at room temperature. Following this incubation step, plates were washed for 3× using 50 μl/well of a PBS+0.05% Tween 20 buffer. For the detection of bound Fabs and full-length antibodies, the anti-Human Lambda Light Chains (Bound and Free)—Peroxidase antibody (Sigma; catalogue number A5175) was diluted by the factor of 1:10.000 in 10% Blocking Buffer. […]
(§1) For measurement, the Infinite f500 reader (Tecan) was used. Measurement mode: Fluorescence; Top reading; Ex 535 nm; Em 590 nm.

human alpha2-Antiplasmin [5] = molecular target: T1, human alpha2-Antiplasmin; assay: ELISA, coated antigen, quantified unpurified antibody, 1st exp.
human alpha2-Antiplasmin [6] = molecular target: T1, human alpha2-Antiplasmin; assay: ELISA, coated antigen, quantified unpurified antibody, 2nd exp.
human alpha2-Antiplasmin [7] = molecular target: T1, human alpha2-Antiplasmin; assay: SPR Biacore T200, antibody captured on protein G chip, A2AP as analyte, 25 C
Description: (§2) Binding assays were performed on a Biacore T200 instrument at 25° C. with a protein G sensor chip and assay buffer HBS-EP+. Antibodies were captured to ˜150 RU and analytes were used at concentrations between 1.56 and 200 nM for full kinetics. As interaction partner, alpha2-Antiplasmin from human, cynomolgus and rabbit was used. Regeneration was performed with glycine-HCl pH 1.5. Kinetic parameters were derived by fitting experimental sensorgrams to a 1:1 Langmuir binding model.

[8] = molecular target: T2, rabbit alpha2-Antiplasmin (rabbit (Oryctolagus cuniculus)); assay: as above
T2 construct: Made in house in HEK293 cells, purified by Ni-IMAC and SEC (a His tag is implied but not described); also called rabbit A2AP; Oryctolagus cuniculus A2AP
T2 chain: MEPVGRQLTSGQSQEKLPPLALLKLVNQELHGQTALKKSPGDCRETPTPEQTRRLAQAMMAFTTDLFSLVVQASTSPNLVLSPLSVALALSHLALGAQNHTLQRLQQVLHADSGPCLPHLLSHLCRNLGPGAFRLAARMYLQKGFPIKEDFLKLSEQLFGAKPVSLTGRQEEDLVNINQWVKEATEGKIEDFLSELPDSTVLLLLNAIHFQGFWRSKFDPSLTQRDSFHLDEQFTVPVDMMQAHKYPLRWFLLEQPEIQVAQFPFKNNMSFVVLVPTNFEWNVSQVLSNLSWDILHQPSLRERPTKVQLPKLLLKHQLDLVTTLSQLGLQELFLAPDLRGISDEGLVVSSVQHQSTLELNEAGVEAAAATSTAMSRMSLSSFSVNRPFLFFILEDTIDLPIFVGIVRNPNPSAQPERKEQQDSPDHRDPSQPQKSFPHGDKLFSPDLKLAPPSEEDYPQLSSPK
Description: as §2

[9] = molecular target: T3, cynomolgus alpha2-Antiplasmin (cynomolgus (Macaca fascicularis), UniProt P08697 28-491 (human entry)); assay: as above
T3 construct: Made in house in the same way as the rabbit protein; also called cynomolgus A2AP; Macaca fascicularis A2AP
T3 chain: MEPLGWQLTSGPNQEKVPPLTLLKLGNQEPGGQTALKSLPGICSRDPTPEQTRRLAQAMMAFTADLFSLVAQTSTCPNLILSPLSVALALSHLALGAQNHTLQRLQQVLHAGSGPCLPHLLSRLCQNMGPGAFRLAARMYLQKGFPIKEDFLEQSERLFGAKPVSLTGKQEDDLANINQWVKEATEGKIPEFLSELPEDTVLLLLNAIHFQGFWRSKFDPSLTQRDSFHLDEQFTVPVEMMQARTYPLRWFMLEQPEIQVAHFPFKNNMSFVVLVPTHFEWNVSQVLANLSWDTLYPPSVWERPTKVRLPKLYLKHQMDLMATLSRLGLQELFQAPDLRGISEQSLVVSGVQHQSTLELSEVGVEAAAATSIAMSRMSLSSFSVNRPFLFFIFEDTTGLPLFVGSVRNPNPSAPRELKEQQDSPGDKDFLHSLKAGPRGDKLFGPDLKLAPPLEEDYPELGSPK
Description: as §2

human alpha2-Antiplasmin [10] = molecular target: T1, human alpha2-Antiplasmin; assay: cell-based or functional assay; remark: listed apart in the source
human alpha2-Antiplasmin [11] = molecular target: T1, human alpha2-Antiplasmin; assay: cell-based or functional assay; remark: listed apart in the source
human alpha2-Antiplasmin [12] = molecular target: T1, human alpha2-Antiplasmin; assay: ELISA, coated antigen, 1st exp.
Description: (§3) A standard ELISA format was used for analyzing the binding affinity of Fabs of this invention to human and rabbit alpha-2-Antiplasmin, respectively. Antigens were coated to black 384 well Maxisorp microtiter plates (Nunc; catalogue number 460518), diluted to a concentration of 1 μg/ml in 1× Coating Buffer (Candor Bioscience; catalogue number 121125). Plates were incubated overnight at 4° C. After overnight incubation, plates were washed 2× with 50 μl/well using PBS+0.05% Tween 20. Following this, 50 μl/well of blocking buffer (Smart Block; Candor Bioscience; catalogue number 113500) was added and the plates were incubated for 1 hour at room temperature. Afterwards, plates were washed for 3× using […] PBS+0.05% Tween 20 buffer. Fabs of this invention were added at different concentrations in a final volume of 30 μl/well. Plates were incubated for 1 hour at room temperature. Following this incubation step, plates were washed for 3× using 50 μl/well of a PBS+0.05% Tween 20 buffer. For the detection of bound Fabs and full-length antibodies, the anti-Human Lambda Light Chains (Bound and Free)—Peroxidase antibody (Sigma; catalogue number A5175) was diluted by the factor of 1:10.000 in 10% Blocking Buffer. 30 μl/well of this diluted detection antibody was added and plates are incubated for 1 hour at room temperature. Following this incubation step, plates were washed for 3× using 50 μl/well of a PBS+0.05% Tween 20 buffer. As substrate, a mixture of 30 μl/well of 1:1000 diluted Amplex red (Invitrogen; catalogue number 12222; stock solution 10 mM in DMSO) and 1:10.000 of Hydrogen peroxide (Merck; catalogue number 107209; 30% stock solution) was added and the plates incubated for […] in the dark.
as §1
(§4) According to the methods described in Example 3 and Example 4, antibodies TPP-14323, TPP-14318, TPP-14314, TPP-14313, TPP-14308, TPP-14305, TPP-14303, TPP-14298, and TPP-14293 were tested for their ability to bind to and to block the activity of human alpha2-Antiplasmin in a dose-dependent manner. For each antibody, one dose response curve from two to three independent experiments performed in quadruplicate is shown as example in FIG. 7.1 to FIG. 7.18. (see Table 3.3)

human alpha2-Antiplasmin [13] = molecular target: T1, human alpha2-Antiplasmin; assay: ELISA, coated antigen, 2nd exp.
Description: as §3, §1, §4

human alpha2-Antiplasmin [14] = molecular target: T1, human alpha2-Antiplasmin; assay: ELISA, coated antigen, 3rd exp.
Description: as §3, §1, §4

human alpha2-Antiplasmin [15] = molecular target: T1, human alpha2-Antiplasmin; assay: cell-based or functional assay; remark: listed apart in the source

Chain of human Plasmin (P00747 97-580 limits assumed, chain 1 of 2): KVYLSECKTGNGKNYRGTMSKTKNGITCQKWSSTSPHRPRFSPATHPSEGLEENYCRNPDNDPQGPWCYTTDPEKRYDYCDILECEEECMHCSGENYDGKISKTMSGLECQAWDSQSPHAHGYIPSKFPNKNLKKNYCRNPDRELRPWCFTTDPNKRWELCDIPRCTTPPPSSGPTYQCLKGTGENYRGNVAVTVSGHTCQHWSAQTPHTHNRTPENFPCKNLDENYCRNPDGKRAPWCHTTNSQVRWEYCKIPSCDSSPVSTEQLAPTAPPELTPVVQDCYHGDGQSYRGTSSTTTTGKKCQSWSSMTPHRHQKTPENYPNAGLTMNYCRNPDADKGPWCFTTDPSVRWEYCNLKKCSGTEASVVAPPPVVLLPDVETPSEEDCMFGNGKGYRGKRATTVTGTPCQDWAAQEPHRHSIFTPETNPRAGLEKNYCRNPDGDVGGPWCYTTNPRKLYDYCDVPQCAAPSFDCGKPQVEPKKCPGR
Chain of human Plasmin (P00747 581-810 limits assumed, chain 2 of 2): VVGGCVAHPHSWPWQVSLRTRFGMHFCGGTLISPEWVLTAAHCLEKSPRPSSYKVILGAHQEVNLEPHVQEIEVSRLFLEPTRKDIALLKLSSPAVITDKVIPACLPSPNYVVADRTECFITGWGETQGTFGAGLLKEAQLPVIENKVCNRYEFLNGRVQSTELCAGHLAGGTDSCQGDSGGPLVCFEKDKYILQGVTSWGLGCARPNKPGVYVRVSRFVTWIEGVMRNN

IC50, A2AP function blocking assay (Example 10) (human alpha2-Antiplasmin [1]): 1.2 nM
function blocking activity [IC50 M], 1st exp. (human alpha2-Antiplasmin [2]): 0.28 nM
function blocking activity [IC50 M], 2nd exp. (human alpha2-Antiplasmin [2]): 0.39 nM
function blocking activity [IC50 M], 3rd exp. (human alpha2-Antiplasmin [2]): 0.3 nM
IC50 [M], inhibition of plasmin proteolytic activity (human Plasmin): > 1e-05 M
EC50 (read off the curve); function blocking assay (Example 4), RFU of plasmin substrate cleavage (human alpha2-Antiplasmin [3]): ~0.3 nM
EC50 (read off the curve) (human alpha2-Antiplasmin [4]): ~0.2 nM
EC50 (human alpha2-Antiplasmin [5]): 0.18 nM
EC50 (human alpha2-Antiplasmin [6]): 0.36 nM
Kd (human alpha2-Antiplasmin [7]): 7.9 nM
Kd [8]: 9.7 nM
Kd [9]: 5.8 nM
B1: TPP-17048 hIgG1 (antibody, V domains shown)
VH: EVQLLESGGGLVQPGGSLRLSCAASGFTFSDYAMSWVRQAPGKGLEWVSAIGTGGSTYYADSVKGRFTISRDNSKNTLYLQMNSLRAEDTAVYYCAREGYDSSGYYHLDYWGQGTLVTVSS
VL: QSVLTQPPSASGTPGQRVTISCTGSSSNIGATYDVHWYQQLPGTAPKLLIYSNNQRPSGVPDRFSGSKSGTSASLAISGLRSEDEADYYCAAWDWSLSGWVFGGGTKLTVLG
notes: Germline variant of TPP-14308

function blocking activity [IC50 M], 1st exp. (human alpha2-Antiplasmin [10]): 20 nM
function blocking activity [IC50 M], 2nd exp. (human alpha2-Antiplasmin [10]): 20 nM
function blocking activity [IC50 M], 3rd exp. (human alpha2-Antiplasmin [10]): 29 nM
IC50 [M], inhibition of plasmin proteolytic activity (human Plasmin): > 1e-05 M
EC50 (read off the curve); function blocking assay (Example 4), RFU of plasmin substrate cleavage (human alpha2-Antiplasmin [11]): ~20 nM
EC50 (human alpha2-Antiplasmin [12]): 7 nM
EC50 (human alpha2-Antiplasmin [13]): 73 nM
EC50 (human alpha2-Antiplasmin [14]): 71 nM
B2: TPP-14323 hIgG1 (antibody, V domains shown)
VH: B1 VH with S30D, S56G, G99Y, D109T
VL: B1 VL

function blocking activity [IC50 M], 1st exp. (human alpha2-Antiplasmin [10]): 20 nM
function blocking activity [IC50 M], 2nd exp. (human alpha2-Antiplasmin [10]): 25 nM
function blocking activity [IC50 M], 3rd exp. (human alpha2-Antiplasmin [10]): 22 nM
IC50 [M], inhibition of plasmin proteolytic activity (human Plasmin): > 1e-05 M
EC50 (read off the curve); function blocking assay (Example 4), RFU of plasmin substrate cleavage (human alpha2-Antiplasmin [15]): ~20 nM
EC50 (human alpha2-Antiplasmin [12]): 5.7 nM
EC50 (human alpha2-Antiplasmin [13]): 59 nM
EC50 (human alpha2-Antiplasmin [14]): 61 nM
B3: TPP-14318 hIgG1 (antibody, V domains shown)
VH: B1 VH with S30D, S56G, G99Y, D109E
VL: B1 VL
